From article PMC10031210
Where two headings read alike, the source gives them in different places.

Experiments:
[1] = biological target: FkpA (full-length, dimeric form) (E. coli) (UniProt P45523); assay: AUC
[2] = biological target: unfolded transmembrane β-barrel of outer membrane protein A (uOmpA171) (E. coli) (UniProt P0A910); assay: AUC
Target sequence in this assay (P0A910 22-192): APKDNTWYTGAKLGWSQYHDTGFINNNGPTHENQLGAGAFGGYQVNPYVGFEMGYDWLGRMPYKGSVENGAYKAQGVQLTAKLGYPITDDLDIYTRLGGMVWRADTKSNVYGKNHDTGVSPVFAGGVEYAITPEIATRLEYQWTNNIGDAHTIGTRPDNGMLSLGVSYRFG

[3] = biological target: unfolded transmembrane β-barrel of outer membrane protein A (uOmpA171) (E. coli) (UniProt P0A910); assay: AUC; remark: listed apart in the source
Target sequence in this assay (P0A910 22-192): as above

[4] = biological target: unfolded transmembrane β-barrel of outer membrane protein A (uOmpA171) (E. coli) (UniProt P0A910); assay: AUC; remark: listed apart in the source
Target sequence in this assay (P0A910 22-192): as above

[5] = biological target: unfolded transmembrane β-barrel of outer membrane protein A (uOmpA171) (E. coli) (UniProt P0A910); assay: AUC; remark: listed apart in the source
Target sequence in this assay (P0A910 22-192): as above

[6] = biological target: unfolded transmembrane β-barrel of outer membrane protein A (uOmpA171) (E. coli) (UniProt P0A910); assay: AUC; remark: listed apart in the source
Target sequence in this assay (P0A910 22-192): as above

[7] = biological target: unfolded outer membrane protein X (uOmpX) (E. coli) (UniProt P0A917); assay: cross-linking
[8] = biological target: unfolded β-barrel assembly machine A (uBamA) (UniProt P0A940); assay: cross-linking
[9] = biological target: unfolded transmembrane β-barrel of outer membrane protein A (uOmpA171) (E. coli) (UniProt P0A910); assay: cross-linking
[10] = biological target: N-FkpA (N-terminal domain of FkpA) (E. coli) (UniProt P45523); assay: AUC

Row | Substance | stoichiometry N [1] | Kd [2] [µM] | Kd [3] [µM] | Kd [4] [µM] | Kd [5] [µM] | Kd [6] [µM] | crosslinking efficiency [7] [%] | crosslinking efficiency [8] [%] | crosslinking efficiency [9] [%] | stoichiometry N [10]
1 | FkpA (full-length, dimeric form) (from UniProt P45523 26-270) (natural protein) | 2 | 2.9 | 0.008 | 1.1 | 0.4 | 0.7 | – | – | – | –
2 | FkpA pAzF variant Y225pAzF (from UniProt P45523 26-270) (natural protein) | – | – | – | – | – | – | 81 | 81.8 | 83.2 | –
3 | N-FkpA (N-terminal domain of FkpA) (from UniProt P45523 26-270) (domain or fragment) | – | – | – | 44 | – | – | – | – | – | 2
